Here are results for 2 substances from paper PMC11629876.

pKd: −log10 of the molar value.

Targets include integrin α5β1 (UniProt P08648); integrin α8β1 (UniProt P53708); integrin αVβ1 (UniProt P06756); integrin αVβ3 (UniProt P06756); integrin αVβ5 (UniProt P06756); integrin αVβ6 (UniProt P06756).
What all share (assay): ELISA; dose response: host component coated, recombinant protein added at increasing concentrations, 2 h 37°C; detected with mouse antiserum; KD by non-linear regression, one site-specific binding (GraphPad Prism)
(In an ELISA, binding on a coated surface is turned into a signal by an enzyme label.)

Experiment [1] concerns the target plasminogen (human plasma) (human).
Experiment [2] has as its target cellular fibronectin (human foreskin fibroblasts) (human).
Experiment [3] deals with collagen I (rat tail) (rat) (UniProt P02454).
For experiment [4], the target named is plasma fibronectin (human plasma) (human).
The target of experiment [5] is vitronectin (human plasma) (human).

Chain of integrin α5β1 (P08648 42-1049, chain 1 of 2): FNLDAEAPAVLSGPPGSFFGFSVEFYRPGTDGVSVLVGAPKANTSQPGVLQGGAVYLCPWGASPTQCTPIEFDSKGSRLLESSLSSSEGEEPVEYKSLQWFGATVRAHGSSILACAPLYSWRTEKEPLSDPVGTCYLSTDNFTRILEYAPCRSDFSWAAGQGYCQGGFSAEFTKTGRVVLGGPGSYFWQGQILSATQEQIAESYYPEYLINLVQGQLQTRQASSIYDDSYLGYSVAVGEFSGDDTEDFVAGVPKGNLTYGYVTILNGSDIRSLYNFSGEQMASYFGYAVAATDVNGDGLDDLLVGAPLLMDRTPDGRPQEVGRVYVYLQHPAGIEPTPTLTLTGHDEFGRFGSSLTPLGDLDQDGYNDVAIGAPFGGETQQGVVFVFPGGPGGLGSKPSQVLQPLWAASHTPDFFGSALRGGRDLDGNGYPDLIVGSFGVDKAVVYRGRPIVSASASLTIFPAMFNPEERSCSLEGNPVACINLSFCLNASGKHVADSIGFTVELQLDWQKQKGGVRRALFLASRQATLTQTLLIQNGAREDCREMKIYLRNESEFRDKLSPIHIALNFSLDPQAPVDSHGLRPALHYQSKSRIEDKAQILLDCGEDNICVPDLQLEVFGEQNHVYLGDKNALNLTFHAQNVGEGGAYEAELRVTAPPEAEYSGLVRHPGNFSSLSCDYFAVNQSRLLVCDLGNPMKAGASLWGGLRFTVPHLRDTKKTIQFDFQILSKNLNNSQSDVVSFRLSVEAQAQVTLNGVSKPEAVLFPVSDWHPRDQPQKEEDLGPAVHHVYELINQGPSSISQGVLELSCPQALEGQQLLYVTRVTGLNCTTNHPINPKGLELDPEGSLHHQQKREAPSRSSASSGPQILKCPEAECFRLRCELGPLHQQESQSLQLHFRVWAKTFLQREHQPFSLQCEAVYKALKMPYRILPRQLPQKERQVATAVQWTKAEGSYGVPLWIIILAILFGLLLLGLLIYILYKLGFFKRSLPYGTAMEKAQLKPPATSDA
Chain of integrin α5β1 (P05556 21-728, chain 2 of 2, further chain): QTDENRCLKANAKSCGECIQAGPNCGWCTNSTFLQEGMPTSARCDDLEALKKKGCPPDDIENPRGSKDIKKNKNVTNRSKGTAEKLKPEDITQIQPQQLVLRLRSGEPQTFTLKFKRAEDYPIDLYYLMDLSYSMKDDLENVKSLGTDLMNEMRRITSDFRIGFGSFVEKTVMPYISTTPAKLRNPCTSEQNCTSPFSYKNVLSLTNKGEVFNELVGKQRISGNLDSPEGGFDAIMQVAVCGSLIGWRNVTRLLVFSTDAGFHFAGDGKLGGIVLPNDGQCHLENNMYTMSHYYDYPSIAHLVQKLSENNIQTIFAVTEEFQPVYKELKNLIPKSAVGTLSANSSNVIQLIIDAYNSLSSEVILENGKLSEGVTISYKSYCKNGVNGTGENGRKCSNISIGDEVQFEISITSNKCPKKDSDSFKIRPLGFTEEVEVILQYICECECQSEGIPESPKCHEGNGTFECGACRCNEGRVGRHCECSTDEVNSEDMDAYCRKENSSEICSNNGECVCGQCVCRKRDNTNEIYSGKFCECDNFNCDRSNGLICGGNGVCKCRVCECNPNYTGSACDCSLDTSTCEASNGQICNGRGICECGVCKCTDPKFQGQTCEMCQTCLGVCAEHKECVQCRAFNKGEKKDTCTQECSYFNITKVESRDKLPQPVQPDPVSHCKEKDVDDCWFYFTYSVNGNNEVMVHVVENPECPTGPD
Chain of integrin α8β1 (P53708 39-1063, chain 1 of 2): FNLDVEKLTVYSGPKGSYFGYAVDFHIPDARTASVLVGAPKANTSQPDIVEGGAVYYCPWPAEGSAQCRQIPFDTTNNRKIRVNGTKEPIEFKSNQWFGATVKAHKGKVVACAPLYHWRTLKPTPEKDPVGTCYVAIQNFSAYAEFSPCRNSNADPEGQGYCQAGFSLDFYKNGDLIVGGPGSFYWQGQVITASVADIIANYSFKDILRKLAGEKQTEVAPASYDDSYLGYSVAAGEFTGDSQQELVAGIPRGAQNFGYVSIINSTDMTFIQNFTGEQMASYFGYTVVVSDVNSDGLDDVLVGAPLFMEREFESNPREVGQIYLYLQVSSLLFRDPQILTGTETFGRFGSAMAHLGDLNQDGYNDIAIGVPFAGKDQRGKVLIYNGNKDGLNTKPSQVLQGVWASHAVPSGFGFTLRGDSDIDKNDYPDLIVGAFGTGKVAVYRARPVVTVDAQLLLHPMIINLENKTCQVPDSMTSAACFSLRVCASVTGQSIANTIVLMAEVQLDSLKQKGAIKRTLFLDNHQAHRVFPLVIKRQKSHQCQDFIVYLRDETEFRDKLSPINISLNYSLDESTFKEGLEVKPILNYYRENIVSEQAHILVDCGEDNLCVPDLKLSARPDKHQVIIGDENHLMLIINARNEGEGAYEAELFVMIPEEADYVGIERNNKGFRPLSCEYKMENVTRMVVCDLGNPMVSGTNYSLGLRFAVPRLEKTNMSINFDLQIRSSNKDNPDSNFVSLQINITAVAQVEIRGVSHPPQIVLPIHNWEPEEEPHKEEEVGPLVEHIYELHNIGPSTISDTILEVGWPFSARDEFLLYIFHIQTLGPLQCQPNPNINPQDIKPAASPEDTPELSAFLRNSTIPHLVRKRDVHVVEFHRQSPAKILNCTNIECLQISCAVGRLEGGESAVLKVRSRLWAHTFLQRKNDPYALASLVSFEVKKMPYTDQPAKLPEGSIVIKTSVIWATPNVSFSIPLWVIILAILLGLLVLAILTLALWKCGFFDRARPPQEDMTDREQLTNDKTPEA
Chain of integrin α8β1 (P05556 21-728, chain 2 of 2, further chain): as the sequence (P05556 21-728, chain 2 of 2, further chain) above
Chain of collagen I (rat tail) (rat) (P02454 152-1207, chain 1 of 2): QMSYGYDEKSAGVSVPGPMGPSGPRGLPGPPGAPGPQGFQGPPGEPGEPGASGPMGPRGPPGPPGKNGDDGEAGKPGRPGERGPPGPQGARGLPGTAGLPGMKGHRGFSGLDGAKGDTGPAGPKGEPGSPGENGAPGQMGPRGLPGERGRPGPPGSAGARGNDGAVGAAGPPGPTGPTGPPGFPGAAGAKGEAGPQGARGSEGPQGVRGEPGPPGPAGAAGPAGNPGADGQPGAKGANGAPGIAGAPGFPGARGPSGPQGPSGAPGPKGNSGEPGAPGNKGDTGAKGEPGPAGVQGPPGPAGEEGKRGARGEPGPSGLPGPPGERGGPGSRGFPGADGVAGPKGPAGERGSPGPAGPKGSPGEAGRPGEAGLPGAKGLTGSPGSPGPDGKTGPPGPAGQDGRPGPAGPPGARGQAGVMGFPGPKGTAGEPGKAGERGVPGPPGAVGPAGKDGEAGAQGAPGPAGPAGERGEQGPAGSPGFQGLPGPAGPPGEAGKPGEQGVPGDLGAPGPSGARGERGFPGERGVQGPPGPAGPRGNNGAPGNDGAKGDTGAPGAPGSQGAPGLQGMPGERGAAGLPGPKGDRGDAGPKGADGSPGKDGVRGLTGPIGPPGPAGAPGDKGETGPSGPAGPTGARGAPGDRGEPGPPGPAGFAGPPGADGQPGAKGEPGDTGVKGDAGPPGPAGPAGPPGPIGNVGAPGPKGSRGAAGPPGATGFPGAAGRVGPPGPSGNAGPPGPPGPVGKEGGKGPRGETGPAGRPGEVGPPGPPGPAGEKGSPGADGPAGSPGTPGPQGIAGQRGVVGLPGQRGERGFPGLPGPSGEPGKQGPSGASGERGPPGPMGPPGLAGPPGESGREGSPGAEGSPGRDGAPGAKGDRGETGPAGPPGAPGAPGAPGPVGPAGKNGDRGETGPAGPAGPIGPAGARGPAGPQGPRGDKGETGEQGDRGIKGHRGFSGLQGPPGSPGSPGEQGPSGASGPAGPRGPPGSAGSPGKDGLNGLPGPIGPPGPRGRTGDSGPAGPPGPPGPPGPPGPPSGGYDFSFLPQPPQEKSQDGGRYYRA
Chain of collagen I (rat tail) (rat) (P02466 86-1125, chain 2 of 2, further chain): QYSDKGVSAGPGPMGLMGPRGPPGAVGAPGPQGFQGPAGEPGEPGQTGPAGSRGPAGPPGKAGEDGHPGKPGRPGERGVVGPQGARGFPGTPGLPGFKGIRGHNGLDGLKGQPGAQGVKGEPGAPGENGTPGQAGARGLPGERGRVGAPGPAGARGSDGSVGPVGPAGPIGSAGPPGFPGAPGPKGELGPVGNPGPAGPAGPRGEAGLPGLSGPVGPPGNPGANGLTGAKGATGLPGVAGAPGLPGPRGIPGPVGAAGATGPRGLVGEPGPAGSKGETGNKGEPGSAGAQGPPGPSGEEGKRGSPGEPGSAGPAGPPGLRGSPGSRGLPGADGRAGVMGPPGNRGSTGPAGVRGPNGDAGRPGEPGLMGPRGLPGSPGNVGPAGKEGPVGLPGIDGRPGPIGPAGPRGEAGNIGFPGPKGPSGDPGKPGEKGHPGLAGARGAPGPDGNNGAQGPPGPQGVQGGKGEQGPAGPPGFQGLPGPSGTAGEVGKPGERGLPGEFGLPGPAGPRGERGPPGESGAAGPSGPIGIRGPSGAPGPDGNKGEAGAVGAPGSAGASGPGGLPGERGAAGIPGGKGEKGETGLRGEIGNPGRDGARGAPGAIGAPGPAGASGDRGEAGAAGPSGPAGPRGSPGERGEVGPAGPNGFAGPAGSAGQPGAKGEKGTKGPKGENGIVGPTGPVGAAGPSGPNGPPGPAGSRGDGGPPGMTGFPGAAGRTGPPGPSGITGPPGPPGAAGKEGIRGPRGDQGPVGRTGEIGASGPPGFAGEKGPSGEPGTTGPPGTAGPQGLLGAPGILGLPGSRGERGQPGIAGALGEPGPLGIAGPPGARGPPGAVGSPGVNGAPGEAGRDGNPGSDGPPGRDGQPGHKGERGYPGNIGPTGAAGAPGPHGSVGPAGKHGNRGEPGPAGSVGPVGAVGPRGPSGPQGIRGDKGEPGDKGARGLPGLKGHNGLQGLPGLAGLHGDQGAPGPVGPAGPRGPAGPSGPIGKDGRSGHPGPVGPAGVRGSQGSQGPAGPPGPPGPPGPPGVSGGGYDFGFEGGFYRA

As for “recombinant LIC11051 (rLIC11051), leucine-rich repeat protein of Leptospira interrogans serovar Copenhageni (natural protein)”, the pKd in [1] was 7.37.
Regarding “recombinant LIC11505 (rLIC11505), leucine-rich repeat protein of Leptospira interrogans serovar Copenhageni (natural protein)”, the pKd in [2] was 7.70; in experiment [3], 7.10; with integrin α5β1 it was 7.13; in the experiment with integrin α8β1 it was 6.72; with integrin αVβ1, 6.87; with integrin αVβ3, 6.82. Also, the pKd in the experiment with integrin αVβ5 is 6.96; with integrin αVβ6, 7.13; in experiment [4], 7.29; in [1], 7.62; in experiment [5] it was 7.19.

The pKd is the Kd on a negative log10 scale, so that one unit is a factor of ten.
